± gives the uncertainty stated by the source.

The nature of the data set: amyloid nucleation score (Sup35N fusion, yeast selection) (log enrichment); library NNK2; higher = more nucleation; inactive = no reads after selection. In short, it runs like this:
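Growth for 7 days at 30°C on medium lacking adenine and uracil followed a 24-hour induction with 100 μM copper sulfate of psi-negative yeast expressing peptides of 20 random codons fused to Sup35N. Input and output plasmid inserts were sequenced with Illumina, and sequences with under 100 input reads were excluded. Nucleation score is the DiMSum log enrichment of output over input reads, centred on the mode score of non-aggregating sequences.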
With SLRYSMRPMAFRFKHPLAPT, the amyloid nucleation score is -0.166 ± 0.28.

Consider FCRWSVTFNFRSMIGPGS, for which the amyloid nucleation score was 5.344 ± 0.035.

Substance VSLINFFVNL came in with an amyloid nucleation score of 8.418 ± 0.056.

Regarding HLVIGFHYSCHGFFLRSFGH, the amyloid nucleation score entry is “inactive”.

Substance CGTGARVCYCYGFKLSSARG gave an amyloid nucleation score of 0.965 ± 0.6.

Regarding SKFWVARRCFASHLK, the amyloid nucleation score was -0.272 ± 1.1.

The substance YNRLMVGRPRLQHLSL returned an amyloid nucleation score of -1.51 ± 0.39.

Regarding VHGDMVFVCLTRCYRMF, the amyloid nucleation score came out at 5.37 ± 0.065.

KKNSAVHVYF yielded an amyloid nucleation score of -1.01 ± 1.1.

YLDTHWIYY displayed an amyloid nucleation score of 0.056 ± 0.63.

QGYLLFN: the amyloid nucleation score worked out at 0.467 ± 0.19.

YTAWMALKNGRLVSGFKAR: the amyloid nucleation score was 0.009 ± 0.34.

Consider QMLDTRSLGNDYNYNVYSLA, for which the amyloid nucleation score was -1.41 ± 0.39.

In turn, ITISII had an amyloid nucleation score of 0.044 ± 1.1.

Turning to LEYERC, the amyloid nucleation score is -0.097 ± 1.1.

Take SIRRCPVKFINKRLVVYLKV: the amyloid nucleation score was -0.88 ± 0.55.

In the case of PRWKHLTWIP, the amyloid nucleation score was -0.349 ± 0.64.

QAHVQILYKL registered an amyloid nucleation score of 5.95 ± 0.054.

In turn, NDLYDSINEA gave an amyloid nucleation score of -0.885 ± 0.38.

Consider GMNQCCPD, for which the amyloid nucleation score was -0.455 ± 0.61.

GGCVYSVTLFFTWTEWGKAK displayed an amyloid nucleation score of -0.516 ± 0.79.

Substance KDGSPYKYLA registered an amyloid nucleation score of -0.554 ± 0.63.

With SVNAIRTQGLRSRMQFMKTG, the amyloid nucleation score is -0.394 ± 1.1.

On to NMGIFALGAEQD, for which the amyloid nucleation score is -0.039 ± 1.1.

ANMCELVLLELVIELRGGLA returned an amyloid nucleation score of 3.28 ± 0.088.

On to DCYSQPMLRVLDSVAHSVWF, for which the amyloid nucleation score was found to be 0.369 ± 0.43.

LFWFLCNVMERYRWNVDAYR registered an amyloid nucleation score of -0.625 ± 0.45.

Substance LYPCYYCRAEKVHVRLDFTR came in with an amyloid nucleation score of -0.517 ± 0.23.

As for DVLIRKWIIWDASNLQWMAI, the amyloid nucleation score worked out at 0.144 ± 0.36.

The substance RRTVQWVWAVYIV had an amyloid nucleation score of -0.803 ± 0.45.

Substance MSRWKVHFTMRTSPCIVNEH returned an amyloid nucleation score of 1.17 ± 0.45.

Consider MDFGVLARSNLYIIYYLCLR, for which the amyloid nucleation score entry was “inactive”.

Substance ITEYSYWSGIPSSMVSPIKH registered an amyloid nucleation score of -0.459 ± 0.28.

In the case of ISLAINLCALIDATRDWSPC, the amyloid nucleation score amounted to 6.12 ± 0.05.

Regarding ALFIRVYMLFRRCEECSLQV, the amyloid nucleation score is 7.575 ± 0.055.

For SHHHSQTRKIDPSTDFSQSS, the amyloid nucleation score is -0.047 ± 1.1.

On to NGVKGLKIMDSRSGVT, for which the amyloid nucleation score is 6.043 ± 0.046.

Substance DFITVYECHCRIFGCVDREA displayed an amyloid nucleation score of -0.352 ± 0.5.

EMDNGDSGTVW displayed an amyloid nucleation score of -0.186 ± 0.76.

With SSDNTQYTETRYSYGFLIKL, the amyloid nucleation score is 0.776 ± 0.56.

For RFHRYTILLLLTPEWTEHAI, the amyloid nucleation score stood at 0.52 ± 0.57.

In turn, GKYMEDYNAENQNPSTMMES showed an amyloid nucleation score of -0.01 ± 0.47.

YFCRMMCLNRWIGRLLFRCN came in with an amyloid nucleation score of 0.775 ± 0.62.

For FRGGSCYIVVWA, the amyloid nucleation score was 6.573 ± 0.04.

The substance HVSKAVNLG came in with an amyloid nucleation score of 0.52 ± 0.56.

Take FCLFW: the amyloid nucleation score entry was “inactive”.

GNVFEHIQSMIRDSFEEHSG returned an amyloid nucleation score of 0.889 ± 0.2.

Take VNQLRHYDLGINAHGQCRRL: the amyloid nucleation score is 0.54 ± 0.8.

Regarding FRWCKRMGLCNLVNDLGCDW, the amyloid nucleation score was found to be 0.446 ± 0.64.

The substance NASVHPMFL displayed an amyloid nucleation score of -0.24 ± 0.48.

APSVLGAYQIHRGRVHVLSA gave an amyloid nucleation score of 0.494 ± 0.29.

The substance SALHCISLDVHRIFGSKNAR returned an amyloid nucleation score of 1.36 ± 0.46.

In turn, PDISKECLTIGNGSACELTD came in with an amyloid nucleation score of 0.827 ± 0.28.

As to GVSIS, the amyloid nucleation score was -0.116 ± 0.76.

In turn, CPSWSSLLISPYYYSSVSHK registered an amyloid nucleation score of -0.443 ± 0.79.

Turning to EVLGLV, the amyloid nucleation score is -0.841 ± 0.64.

Consider KGAFANL, for which the amyloid nucleation score is -1.63 ± 0.55.

For the substance LLVRFVLVATRRTLSTV, the amyloid nucleation score was -0.029 ± 1.1.
